Experimental findings from article doi:10.1101/2024.12.01.621710 (bioRxiv, 2024) are described below.

In data set [1] the target is MBP-IPAM C-ter (Chlamydia trachomatis serovar L2 (LGV 434/Bu)). In words: SEC + other: mass photometry.
Data set [2] deals with MBP-InaC C-ter (Chlamydia trachomatis serovar L2 (LGV 434/Bu)). In words: SEC + other: mass photometry.
Data set [3] concerns the target MBP-IncA C-ter (Chlamydia trachomatis serovar L2 (LGV 434/Bu)). In words: SEC + other: mass photometry.
Data set [4] deals with the molecule itself.
Data set [5] concerns the molecule itself. In words: SEC + other: mass photometry.

Where “and” joins values, the source holds several entries; their conditions need not be identical. Equal values may be shown once. Read-outs that look alike come from different tables or passages of the source.

For MBP-IPAM C-ter (domain or fragment), the stoichiometry N in data set [1] is 2 and 3.

As for MBP-InaC C-ter (domain or fragment), the stoichiometry N in data set [2] was 2 and 3.

As to MBP-IncA C-ter (domain or fragment), the stoichiometry N in data set [3] is 4.

B1: MBP-CpoS C-ter (domain or fragment)
chain: ARARSRRVEIERQLEVVSMQIEELEEEYKALSEVYRANLEARRAVSKYCQELEEKILDLCKRHAATICSIEEDAKQEIRHQTERFKQRLQQNQNTCSQLTAELCKLRSENKALSERLQVQASRRKK
For B1, the “stoichiometry N” value in data set [4] was 2; in data set [5], 4 and 8.
